For test [1], the target named is T1, Tag-free human IL6 recombinant protein (GenScript, Cat. No. Z03034) (human, UniProt P05231 30-212). In words: SPR (Biacore).
For test [2], the target named is T1, Tag-free human IL6 recombinant protein …. In words: ELISA.

In patent US20220396615A1 (published 2022) one finds Kd and EC50 data, which are given here for 6 molecules.

Where a chain is given by its changes, count along the chain named.

T1 sequence (P05231 30-212, one chain of several): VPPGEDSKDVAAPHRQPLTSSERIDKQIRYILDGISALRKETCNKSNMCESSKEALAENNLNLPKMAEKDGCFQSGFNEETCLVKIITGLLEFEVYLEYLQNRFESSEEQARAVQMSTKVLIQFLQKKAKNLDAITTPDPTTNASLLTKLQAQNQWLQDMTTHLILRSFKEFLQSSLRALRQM

B1: 61G1D8 (rat) (antibody, V domains shown)
VH: EVQLLESGGGLVQPGRSMKLSCAASGFTFSSFPMAWVRQTPSKALEWVATISPSGGTSYSRDSVKGRFTISRDNANSTLCLHMDSLKSEDTATYYCLRERIYNTYFDYWGQGVMVTVSS
VL: DIRMTHSPASLSASLGETVSIECLPSEDISSDLAWYQQKPGKSPQLLIYNANTLPNGVPSRFSGSRSGAQYFLKINSLQSEDVATYFCQQYDSYPYTFGTGTKLELK
Take B1: the dissociation constant (Kd) in test [1] worked out at 230 pM. Moreover, the concentration giving a half-maximal response (EC50) in test [2] came out at 0.0196 µg/mL.

B2: 49F10H6 (antibody, V domains shown)
VH: QVQLQQPGAELVKPGASVKMSCKASGYTFTNYIIHWIKQTPGQGLEWIGAIYPGNGDTSYSQKFKDKATLTADRSSSTAYMQLSSLTSEDSAVYYCARGDAGYSAWFAYWGQGTLVTVSA
VL: NIVLTQSPASLAVSLGQRATISCSASESVDSYGNNFMHWYQQRPGQPPKLLIYLASKLESGVPARFSGSGSRTEFTLTIDPVEAEDAATYYCQQNNEDPLTFGAGTKLELK
In the case of B2, the Kd in test [1] stood at 265 pM. Besides, the EC50 in test [2] was 0.0153 µg/mL.

B3: 53A2F9 (rat) (antibody, V domains shown)
VH: QVQLKESGPGLVQPSQTLSLTCTVSGFSLTSHTVSWIRQPPGRGLEWMGKMWSNGDTDYDSAIRSRLSITRDTSKSQVFLKINSLQTEDTAMYFCARYYFSSYGGGYFDYWGQGVMVTVSS
VL: DTVLTQSPALAVSLGQRVTISCRASKSVSTYMHWYQQKSGQQPKLLIYSASNLESGVPSRFSGSGSGTDFTLTIDPVEADDIANYYCQQSDELPDTFGAGTKLELK
B3: the Kd in test [1] stood at 0.0225 pM.

B4: 41A10B8 (antibody, V domains shown)
VH: EVKLEESGGGLVQPGGSMKLSCAASGFTFSDAWMDWVRQSPDKGLEWVAEIRSKTYHPATYYTKSVRGRFTISRDDSKSSVYLQMNNLGAEDTGIYYCTRPRYYGGYFDYWGQGTTLTVSS
VL: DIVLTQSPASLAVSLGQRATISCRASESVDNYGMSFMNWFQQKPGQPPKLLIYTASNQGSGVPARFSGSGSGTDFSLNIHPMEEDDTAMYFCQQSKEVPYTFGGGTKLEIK
Regarding B4, in test [1], the Kd was 84.7 pM. Also, in test [2], the EC50 amounted to 0.018 µg/mL.

B5: 29D6B5 (antibody, V domains shown)
VH: QVQLQQSGAELAEPGASVKMSCKASGYNFNNYWMHWVKQGPGQGLEWIGYIDPRTASIYYNQKFKDKATLTADKSSSTAYMQLSSLTSEDSAVYYCARILYGKYDVWGAGTTVIVSS
VL: DVVLTQTPLSLPVSLGNQASISCRSSQSLVDSNGNTYLHWYLQKPGQSPKVLIHKVSNRFSGVPDRFSGSGSGTDFTLKISRVEAEDLGVYFCSQSTHVPPTFGGGTKLEIK
In the case of B5, the Kd in test [1] was determined as 1950 pM. The half-maximal effective concentration (EC50) in test [2] came to 0.0231 µg/mL.

B6: 23A9H3 (antibody, V domains shown)
VH: QVQLQQSGAELAKPGASVKMSCKTSGYTFTNYWMHWVKQRPGQGLEWIGYVIPSTGYTDYNQSFKDKATLTADKSSNTAYMQVNSLTSEDSAVYYCASLLPGFAYWGQGTLVTVSA
VL: B5 VL with L4M, N17D, V51L, H54Y
Regarding B6, in test [1], the Kd turned out to be 8770 pM. Further, the EC50 in test [2] is 0.0163 µg/mL.
